What all share (experiment): co-immunoprecipitation, mass spectrometry
The target in test [1] is GPS2 (endogenous, HEK293T). The note with it: HEK293T cells; n = 3 independent transfections per mutant; read off a plot.
For test [2], the target named is HDAC3 (endogenous, HEK293T). The conditions noted are these: HEK293T cells; n = 3 independent transfections per mutant; read off a plot.
In test [3] the target is TBL1X (endogenous, HEK293T). The note with it: HEK293T cells; n = 3 independent transfections per mutant; read off a plot.
The target of test [4] is NCOR1 (endogenous, HEK293T) [Homo sapiens (Human).]. The note with it: HEK293T cells; n = 3 independent transfections per mutant; read off a plot.
The target in test [5] is endogenous SETD5 of Flp-In T-REx 293 and HEK293T cells [human (endogenous in Flp-In T-REx 293 and HEK293T)]. The conditions noted are these: n = 3 independent transfections per mutant, read off a plot.

As to “EGFP-ANKRD11 full length (FL), wild type (from UniProt Q6UB99) E2522K”, the other: log2 fold change (WT/mutant) in test [1] came to 2.8 log2; in test [2], 2.9 log2; in test [3], 2.3 log2.

Take “EGFP-ANKRD11 full length (FL), wild type (from UniProt Q6UB99) L2605R”: the other: log2 fold change (WT/mutant) in test [1] is 3.4 log2; in test [2], 7 log2; in test [3], 7.2 log2.

Take “EGFP-ANKRD11 full length (FL), wild type (from UniProt Q6UB99) R2523W”: the values for the other: log2 fold change (WT/mutant) in test [1] and in test [2] were 2.8 log2 and 5.9 log2, respectively.

Take “EGFP-ANKRD11 full length (FL), wild type (from UniProt Q6UB99) S2475P”: the other: log2 fold change (WT/mutant) in test [1] is 3.4 log2; in test [2], 7 log2; in test [3], 7.6 log2.

“EGFP-ANKRD11 full length (FL), wild type mutant E2522K [not stated] / NCOR1 (endogenous, HEK293T) [Homo sapiens (Human).] chain 1 E2522K” yielded a screen value in test [4] of 2.9 log2.

Regarding “EGFP-ANKRD11 full length (FL), wild type mutant E2522K [not stated] / endogenous SETD5 of Flp-In T-REx 293 and HEK293T cells [human (endogenous in Flp-In T-REx 293 and HEK293T)] chain 1 E2522K”, the screen value in test [5] was determined as 2.7 log2.

On to “EGFP-ANKRD11 full length (FL), wild type mutant L2605R [not stated] / NCOR1 (endogenous, HEK293T) [Homo sapiens (Human).] chain 1 L2605R”, for which the screen value in test [4] stood at 7.9 log2.

In test [5], “EGFP-ANKRD11 full length (FL), wild type mutant L2605R [not stated] / endogenous SETD5 of Flp-In T-REx 293 and HEK293T cells [human (endogenous in Flp-In T-REx 293 and HEK293T)] chain 1 L2605R” showed a screen value of 4.6 log2.

“EGFP-ANKRD11 full length (FL), wild type mutant R2512Q [not stated] / NCOR1 (endogenous, HEK293T) [Homo sapiens (Human).] chain 1 R2512Q” yielded a screen value in test [4] of 4.2 log2.

Turning to “EGFP-ANKRD11 full length (FL), wild type mutant R2512Q [not stated] / endogenous SETD5 of Flp-In T-REx 293 and HEK293T cells [human (endogenous in Flp-In T-REx 293 and HEK293T)] chain 1 R2512Q”, the screen value in test [5] was found to be 4 log2.

With “EGFP-ANKRD11 full length (FL), wild type mutant R2523W [not stated] / NCOR1 (endogenous, HEK293T) [Homo sapiens (Human).] chain 1 R2523W”, the screen value in test [4] was found to be 7.4 log2.

In turn, “EGFP-ANKRD11 full length (FL), wild type mutant R2523W [not stated] / endogenous SETD5 of Flp-In T-REx 293 and HEK293T cells [human (endogenous in Flp-In T-REx 293 and HEK293T)] chain 1 R2523W” returned a screen value in test [5] of 5.6 log2.

Consider “EGFP-ANKRD11 full length (FL), wild type mutant S2475P [not stated] / NCOR1 (endogenous, HEK293T) [Homo sapiens (Human).] chain 1 S2475P”, for which, in test [4], the screen value came to 7.9 log2.

The substance “EGFP-ANKRD11 full length (FL), wild type mutant S2475P [not stated] / endogenous SETD5 of Flp-In T-REx 293 and HEK293T cells [human (endogenous in Flp-In T-REx 293 and HEK293T)] chain 1 S2475P” returned a screen value in test [5] of 4.6 log2.
